Results: the supplement of paper PMC9170038

tested on: K4 kissing-loop RNA reporter; assay: apparent KD of K4 kissing-loop reporter; higher = weaker reporter binding; conditions: Eterna round: R107; input ligand: theophylline 20 uM
Protocol: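 RNA-MaP round R107: designed RNA switches with theophylline, tryptophan, arginine or FMN aptamers are transcribed on-chip within common flanks. They are titrated with a labelled K4 kissing-loop RNA reporter in RNA-MaP buffer (100 mM Tris pH 7.5, 80 mM KCl, 4 mM MgCl2), without ligand or with the indicated ligand. Median apparent KD per design.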
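Also: bound reporter read as fluorescence of individual clusters on recovered sequencing chips by microscopy, with normalized cluster intensities fitted with a binding model.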

“CACCCUAGUUCAGAUACCAGACUAGAGACAGUGAUGUUGUCACAUCCUAAAUUGGGUGUAGUCCCUUGGCAGCUGAGUAAUCUGC [Theo B/Ex/SS double]” and “GGUAGCAUGGCGGCCGCCACUUCAAAUGGAGUGAUGUUCCAAGGCAUCGCGAAAGCGAUGCCAGGAAGGACCGGGCCAUGCUACC” are within 1.5-fold of each other in “apparent KD of K4 kissing-loop reporter” value: 596 nM for the first, 566 nM for the second.

Going from “GGAAGGAAGGAAACCAACCAACCAACCGAUACCAGCGGAAGAGAACGCCCUUGGCAGCGGAGAAAGCCAGUGAUGUUGGAAAGAA” to “AGUGUUAGGUUAGAUACCAGCCGUCUGUGGAUAAUCCACAGACCGCCAGUGAUGUUGGCAGGCCCUUGGCAGCUAACAGGACAGA [Riedingeus]”, the “apparent KD of K4 kissing-loop reporter” value falls from 300 nM to 153 nM (2-fold).

Compared with “UUAGGCUCUCUUCUCAUUCGCUUAACCGAUACCAGAGUAAGCCCUCUCCCUUGGCAGCGGAGUGAUGUUCCGAGUGUUGAUAUUG [theeternabot_exclusion_KL_Theo_A_44]”, “AAACAUUGGUGCGAUACCAGCUGAUCGGAAACGAUCAUGCUGGAGUGAUGUUCCAGGAAAAGCCCUUGGCAGCGCACCGAUGAAA [MAT - Same State Theophlline B - Mod of Eli - D29]” is 2.1-fold higher in “apparent KD of K4 kissing-loop reporter” value: 130 nM for the first, 275 nM for the second.

Going from “UGACUACAUAAGGAUUAAUCCUAGUGAUGUUAGGAUAUGCUGAUAAGCAGAAGGAACGGAGAUCGAAGGAUCUCAUAUGUAGUCU [whbob_Ex_FMNA__2th195]” to “UAUGAAGGUGGAGGAUAUUGAUUGAAUCUUGGUCUGGAGUGAUGUUCCGGGAAGCCUUGGAUUCAUCGAGAAGGCCAAGGAUAGU [Extra 1]”, the “apparent KD of K4 kissing-loop reporter” value rises from 138 nM to 263 nM (1.9-fold).

“AGCCAGCGUACAUCACUCUGGCUGCUGGAUACCAGCUCGGAAACGAGCCCUUGGCAGCCAGAACUUGCAGUGAUGUUGCAAGUAA [Design12]” and “CGCCGCAAGGCGAGCGCUCCCACUCCGGAAGGAGCGCCCGGAAGGGCAGGUAGGUCGCCGGAGUGAUGUUCCGGUGGAGGGCUCG [#2 Exclusion - Arginine A Attempt #13 (Inspired by Omei)]” are within 1.5-fold of each other in “apparent KD of K4 kissing-loop reporter” value: 458 nM for the first, 491 nM for the second.

For “UUCGUCGCGCAUGAUACCAGCGAGAUUUAACGCCGAAUCCUCACGCAGUGAUGUUGCACCCGCCCUUGGCAGCAUAGCCGGUUAC [theeternabot_sameState_KL_Theo_B_13]”, the “apparent KD of K4 kissing-loop reporter” value was 344 nM.

same assay, conditions: Eterna round: R107; input ligand: tryptophan 2.4 mM

Compared with “UCGGCGGAGUGAUGUUCCUAUGUCCAAGAUACCAGUCUAUGAACGGACCCUUGGCAGCUUCCAUUAGGUUACUAUUUAGACUCAU [theeternabot_exclusion_KL_Theo_A_10]”, “AGCAAAACCAAAGGAUAUUGGCAGUCGAUGUACCAUGUUCCCGUAGCAGGUUGAGUGAUGUUUAAGCAAGAAGGUUGGCGUUUGG [theeternabot_exclusion_KL_FMN_B_12]” is 2.2-fold higher in “apparent KD of K4 kissing-loop reporter” value: 166 nM for the first, 368 nM for the second.

Going from “UACUAUAGUGAUGUUAUAGAUAAACCAGAUACCAGUGUAACAUAACACCCUUGGCAGCUGAUGAGGGAACAUAUGAAUGCAUAUG [AstrosSSTHe-A#5newdesignED5.11]” to “GGCACUUUUGGUAGAAAACAUCUACCUCUAUAGGAUAUGCCGAAAGGCAGAAGGAUAGACCUACAGAGUGAUGUUCUGCGUGCCU”, the “apparent KD of K4 kissing-loop reporter” value rises from 163 nM to 283 nM (1.7-fold).

Going from “AGCGCUGCCUGAGGAUAUAGAAACGAGUGAUGUUCGUGGAUUGAUACCAGUGAUGUUGGCCUAUUUCUAGAAGGCAGGCGAUCGU [Exclusion FMN B GF2]” to “AUUAUAAAGGCGGCCGCCACUAGUGAUGUUAGUGACUAUAGUAUUAUCUAUAGAAUAAAAUAAAAUAGGACCGGGCCAAAAUAUU [AstrosExTryB#2]”, the “apparent KD of K4 kissing-loop reporter” value rises from 114 nM to 464 nM (4.1-fold).

“GGUGACAACCAGAAGUGAUGUAUAGAAUAGCGAGGACCGGUACGGCCGCCACUCGUGAAGAGAAAGGAGUGAUGUUCCGUAAUGG [Kazoo C4]” and “AAGUGAUGUUGUAGUGAUGUUGUGAUGUUGCAGGAUAUAUAGUGAUGUAGAAGGGUAAGUACUCAUGUUGUUAGUAAGUGAUGUU [bttutmullin]” are within 1.5-fold of each other in “apparent KD of K4 kissing-loop reporter” value: 85.1 nM for the first, 74.2 nM for the second.

“UAAAUCACACGAGAUACCAGCCAAACCGAACUUGAGCACUAUAGUGAUGUUAUAUUGCGAGGCCCUUGGCAGCUCAAUAGAACAA [theeternabot_sameState_KL_Theo_B_11]” and “AUUUUGGUUGAGAGUGAUGUUCCUUGUGUUCGAGGACCGGUACGGCCGCCACUCGGGUAGAAAAUAAAAGAAAUGUUUGAUUUUU [BDazzled - #11 SS Tryptophan A]” are within 1.5-fold of each other in “apparent KD of K4 kissing-loop reporter” value: 182 nM for the first, 215 nM for the second.

Going from “GUACGCUCUCGAGUGAUGUUCGGUAAUCGCGAGGAUAUCGCUUUUGCGAGAAGGCGCGGAAUGAGGAAACUCGUUCUGAGUGUAC [FMN A 23]” to “GCCGUACGCAUGGAUACCAGCAAGCAUAGCAGGAAACUGCUAUGCACCAGUGAUGUUGGAUGCCCUUGGCAGCCAUGCGUACGGC”, the “apparent KD of K4 kissing-loop reporter” value rises from 715 nM to 1110 nM (1.6-fold).

First: UGAUAGGACAGAAGGAGCGGUAGUGAUGUUACCAAAAGAAUAAGGUGUCAAAAGACACCCUGCCAGGUAGGUCGCUGUCCUAUCU
Second: AGACUACCACACUGUCAAUAGACAGUGAAUUAGGAUAUGCUGAUAAGCAGAAGGAGUGAUGUUCCCAGGUAGUCAAUAAAAUAAU [FmnAX 13 U30+C66]
The “apparent KD of K4 kissing-loop reporter” value of the first is 2.1-fold lower: 86 nM for the first, 177 nM for the second.

“CUUGAGACAUGAGUGAUGUUCAUGUCCGAAGGAGCGUGCGAAAGCACAGGUAGGUCGCGGACGUGAGUGAUGUUCAUGUGAGCGA [KL-XArg-A10 #analogue]” and “UGGAGUUGACGAAAAGUCAACUCCUGAGAAGGAGCGGACGAAAGUCCAGGUAGGUCGCUCACUACCAGUGAUGUUGGUACUUGAA” are within 1.5-fold of each other in “apparent KD of K4 kissing-loop reporter” value: 201 nM for the first, 185 nM for the second.

Compared with “UGUCAUUGGUCGGCCGCCACUAGAAGGUCAAAGACCAUAGAGUGAUGUUCUGAGACGAAAGUCACUAGGACCGGGACCGAUGACU [TrypBS 6 #SwitchBubble #K4Middle]”, “CGCGCGCGCGCGCGCGCGCGCGCGCGAAGUGAGGAUAUUUAGGGAGAAAGAAGGCACUAUAAAAUAUAGUGAUGUUAUAUAAGGG [SSFMNA.B]” is 1.6-fold lower in “apparent KD of K4 kissing-loop reporter” value: 786 nM for the first, 496 nM for the second.

Going from “GUACGCUCUCGAGUGAUGUUCGGUAAUAGUUAGGAUAUCGCUUUUGCGAGAAGGAACUGAAUGAGGAAACUCGUUCUGAGUGUAC [FMN A 18]” to “UGUAUGUGAUUUGAUACCAGACCAGCUGGUGGUGUAUGAGUGAUGUUCAUGCUGGUUUGGGUCCCUUGGCAGCAAAUCGCAUACU [KL-SSTheoB29]”, the “apparent KD of K4 kissing-loop reporter” value falls from 239 nM to 8.89 nM (27-fold).

“GCACUCCAUCGGACGUAAGUGAUGUUUACCCGAGGACCGGUACGGCCGCCACUCGACCGUGCAUAACCAAAUCAAAUAGCUUCCG [theeternabot_exclusion_KL_Trp_A_31]” and “UGCGCUAUGUCCUAAAACGUCCUCCGGGAUACCAGUGUCUUUUUAUACCCUUGGCAGCUUGAGUGAUGUUUGAUGCCGUUCUUGU [izzxmullin]” are within 1.5-fold of each other in “apparent KD of K4 kissing-loop reporter” value: 221 nM for the first, 304 nM for the second.

“CUGACCAACAGCGAUACCAGCGUGGAGUGAUGUUCCGUGGAUCGGAGUGAUGUUCCGAAGCGCCCUUGGCAGCGCAGAAGCAGGA [Exclusion Theophylline B GF11]” and “UGACUGGAUGGAAGGAGCGCUAAACUCCUAGUGAUGUUAGGGACAUGAGGCACAGCCUUGAAGCAGGUAGGUCGCCAUCUAGUCU [FiskerMod 28 - Jieux - Same State - Arginine B]” are within 1.5-fold of each other in “apparent KD of K4 kissing-loop reporter” value: 152 nM for the first, 174 nM for the second.

Compared with “UGGGCUGCCUGAGGAUAUAGAGACGAGUGAUGUUCGUGGAUAAGAGCCAGUGAUGUUGGGUUAUUUCUAGAAGGCGGGCGAACUU [Exclusion FMN B GF8]”, “ACGAUUUACAGAAGGAGCGUGUAUUUAUCUACAAUUUUCUUAGCGAGUGAUGUUCGUUAUACACAGGUAGGUCGCUGUAUAUCGA [JR_ExcArginiB_Sub013]” is 1.5-fold higher in “apparent KD of K4 kissing-loop reporter” value: 115 nM for the first, 174 nM for the second.

“UCCUCGAAUCGACCUCGAAAGAGGAUGGAUACCAGAGAAGAAAUUCUCCCUUGGCAGCCAGUGAUGUUGGAACGAGGUAAAUAAA [#SwitchBubble 20 #K4Late]” and “GUAUGUGGAAACACGUACUUAUAUCCUCGACAGGAUAUGCGGAAACGCAGAAGGGUCGCCAACGAGUUUAUCCAGUGAUGUUGGA [Ex FMN A 15]” are within 1.5-fold of each other in “apparent KD of K4 kissing-loop reporter” value: 424 nM for the first, 350 nM for the second.

First: GGUUUAUAAGAGGAUACCAGUACAAAUAAAGUACAUUAAUAGUAGAGUGAUGUUCUAAAGUACCCUUGGCAGCUUAGAUUAAGUU [ExTheophylB.F]
Second: ACCAUCAAAGAUGGCCAGGACUCCGCUGAUACCAGAGUGGAAACACUCCCUUGGCAGCAGGUGAGUGAUGUUCACAGUCCAUGGA [Omel KL Theo A SS B v4]
The “apparent KD of K4 kissing-loop reporter” value of the first is 4-fold lower: 85.4 nM for the first, 341 nM for the second.

Going from “GGGUCUGCCGGAAGGAGCGCACUAUGGAGUGAUGUUCCAUGACCGCACAGCUUGCGGUCAGUGCAGGUAGGUCGCCGGUAGCGUU [Inesor]” to “CUUGGCAUGCGCGAUACCAGCGAACAUAGCAAGCUACGGGUAGUGAUGUUAUCUGAAUAACGCCCUUGGCAGCGCACAUGCCGGC [clock]”, the “apparent KD of K4 kissing-loop reporter” value rises from 162 nM to 712 nM (4.4-fold).

Going from “CACCCUAGUUCAGAUACCAGACUAGAGACAGUGAUGUUGUCACAUCCUAAAUUGGGUGUAGUCCCUUGGCAGCUGAGUAAUCUGC [Theo B/Ex/SS double]” to “GGUAGCAUGGCGGCCGCCACUUCAAAUGGAGUGAUGUUCCAAGGCAUCGCGAAAGCGAUGCCAGGAAGGACCGGGCCAUGCUACC”, the “apparent KD of K4 kissing-loop reporter” value falls from 540 nM to 143 nM (3.8-fold).

Compared with “GGAAGGAAGGAAACCAACCAACCAACCGAUACCAGCGGAAGAGAACGCCCUUGGCAGCGGAGAAAGCCAGUGAUGUUGGAAAGAA”, “AGUGUUAGGUUAGAUACCAGCCGUCUGUGGAUAAUCCACAGACCGCCAGUGAUGUUGGCAGGCCCUUGGCAGCUAACAGGACAGA [Riedingeus]” is 1.5-fold lower in “apparent KD of K4 kissing-loop reporter” value: 318 nM for the first, 208 nM for the second.

“UUAGGCUCUCUUCUCAUUCGCUUAACCGAUACCAGAGUAAGCCCUCUCCCUUGGCAGCGGAGUGAUGUUCCGAGUGUUGAUAUUG [theeternabot_exclusion_KL_Theo_A_44]” and “AAACAUUGGUGCGAUACCAGCUGAUCGGAAACGAUCAUGCUGGAGUGAUGUUCCAGGAAAAGCCCUUGGCAGCGCACCGAUGAAA [MAT - Same State Theophlline B - Mod of Eli - D29]” are within 1.5-fold of each other in “apparent KD of K4 kissing-loop reporter” value: 107 nM for the first, 95.9 nM for the second.

“UGACUACAUAAGGAUUAAUCCUAGUGAUGUUAGGAUAUGCUGAUAAGCAGAAGGAACGGAGAUCGAAGGAUCUCAUAUGUAGUCU [whbob_Ex_FMNA__2th195]” and “UAUGAAGGUGGAGGAUAUUGAUUGAAUCUUGGUCUGGAGUGAUGUUCCGGGAAGCCUUGGAUUCAUCGAGAAGGCCAAGGAUAGU [Extra 1]” are within 1.5-fold of each other in “apparent KD of K4 kissing-loop reporter” value: 164 nM for the first, 198 nM for the second.

“AGCCAGCGUACAUCACUCUGGCUGCUGGAUACCAGCUCGGAAACGAGCCCUUGGCAGCCAGAACUUGCAGUGAUGUUGCAAGUAA [Design12]” and “CGCCGCAAGGCGAGCGCUCCCACUCCGGAAGGAGCGCCCGGAAGGGCAGGUAGGUCGCCGGAGUGAUGUUCCGGUGGAGGGCUCG [#2 Exclusion - Arginine A Attempt #13 (Inspired by Omei)]” are within 1.5-fold of each other in “apparent KD of K4 kissing-loop reporter” value: 345 nM for the first, 416 nM for the second.

“UUCGUCGCGCAUGAUACCAGCGAGAUUUAACGCCGAAUCCUCACGCAGUGAUGUUGCACCCGCCCUUGGCAGCAUAGCCGGUUAC [theeternabot_sameState_KL_Theo_B_13]” was tested, and the “apparent KD of K4 kissing-loop reporter” value was 199 nM.
